Assay [1] addresses Phos-HP1α (HP1α co-expressed with CKII, phosphorylated in the N-terminus and hinge) (human). Briefly: native MS.
The target in assay [2] is WT HP1α (human heterochromatin protein 1 alpha, unmodified) (human). Briefly: AUC.

The values below come from article PMC5606208.

One may read the stoichiometry N as a count of units in the complex or per binding partner. As to “Phos-HP1α (HP1α co-expressed with CKII, phosphorylated in the N-terminus and hinge) (natural protein)”, in assay [1], the stoichiometry N is 2.
By Kd is commonly meant the constant that tells how readily two partners part at equilibrium. Read a high Kd as a looser complex. With “WT HP1α (human heterochromatin protein 1 alpha, unmodified) (natural protein)”, the Kd in assay [2] is 1120 nM.
